Reference: patent publication US20030124602A1 (Novartis, published 2003)

B1: GAL4 DNA binding domain fusion of human PKB alpha amino acids 411-480 (pGBT-CT) (other, yeast;human, UniProt P04386 1-147, looked up)
chain: MKLLSSIEQACDICRLKKLKCSKEKPKCAKCLKNNWECRYSPKTKRSPLTRAHLTEVESRLERLEQLFLLIFPREDLDMILKMDSLQDIKALLTGLFVQDNVNKDAVTDRLASVETDMPLTLRQHRISATSSSEESSNKGQRQLTVSIVWQHVYEKKLSPPFKPQVTSETDTRYFDEEFTAQMITITPPDQDDSMECVDSERRPHFPQFSYSASGTA
notes: range 1-147;range 411-480
B2: Gal4-AD-CTMP fusion protein encoded by pGADGH.CTMP (CTMPL fused to the GAL4 transcriptional activation domain) (other, not shown: small tags and cut ends)
chain: NSARARASAAPRPGAMLRSCAARLRTLGALCRPPVGRRLPGSEPRPELRSFSSEEVILKDCSVPNPSWNKDLRLLFDQFMKKCEDGSWKRLPSYKRTPTEWIQDFKTHFLDPKLMKEEQMSQAQLFTRSFDDGLGFEYVMFYNDIEKRMVCLFQGGPYLEGPPGFIHGGAIATMIDATVGMCAMMAGGIVMTANLNINYKRPIPLCSVVMINSQLDKVEGRKFFVSCNVQSVDEKTLYSEATSLFIKLNPAKSLT
notes: Yeast two-hybrid prey recovered from a HeLa cDNA library; also called this clone
B3: human Lamin C (control plasmid pLAM5') (other, UniProt P02545-2 66-230, looked up)
chain: SEEVVSREVSGIKAAYEAELGDARKTLDSVAKERARLQLELSKVREEFKELKARNTKKEGDLIAAQARLKDLEALLNSKEAALSTALSEKRTLEGELHDLRGQVAKLEAALGEAKKQLQDEMLRRVDAENRLQTMKEELDFQKNIYSEELRETKRRHETRLVEID
notes: Two-hybrid control protein; Lamin C is an isoform of the LMNA entry

Legend:
[1] = target: B2; experiment: yeast two-hybrid, His auxotrophy and lacZ reporters
[2] = target: T1, GAL4 DNA binding domain fusion of human PKB alpha amino acids 1-480 (pGBT-PH-KIN-CT, full-length PKB) (yeast; human, UniProt P04386 1-147; P31749 1-480); experiment: as above
T1 construct: range 1-147;range 1-480

[3] = target: T2, GAL4 DNA binding domain fusion of human PKB alpha amino acids 147-480 (pGBT-KIN-CT) (yeast; human, UniProt P04386 1-147; P31749 147-480); experiment: as above
T2 construct: range 1-147;range 147-480; Bait of the library screen; also called deltaPH

[4] = target: T1, GAL4 DNA binding domain fusion of human …; experiment: yeast two-hybrid
[5] = target: T2, GAL4 DNA binding domain fusion of human …; experiment: yeast two-hybrid
[6] = target: B1; experiment: yeast two-hybrid

## B1
[1]
  binding result: binds

## B2
[2]
  binding result: binds
[3]
  binding result: binds

## B3
[4]
  binding result: no binding
[5]
  binding result: no binding
[6]
  binding result: no binding
